The results in this text go back to the supplement of paper PMC9170038.

For the data set, the system named is MS2 coat protein. As to the kind of experiment: apparent KD of MS2 coat protein; designed switch direction (-1 OFF switch, 1 ON switch): -1; higher = weaker reporter binding. The gist of the method:
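SNAP-549-labelled MS2 coat protein was titrated, doubling from 0.7 or 1.5 nM to 3 µM, over designed RNA switches transcribed on Illumina chips by stalled E. coli RNA polymerase. Runs were done without input, with 200 uM small-molecule ligand, or with an oligonucleotide input. Apparent KD is the per-design median over clusters of curve-fitted normalised fluorescence.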

Where [1] appears, read: input ligand: microRNA oligo, concentration not stated.

Consider “ACAUGAGGAUCACCCAUGUACACGUAAUGGCUCAUGUAGAGUGAGGAUAUGUGAGACGAACGAGCACAGAAGGCACAAGACUGG [Deportation 11 - Jieux - Exclusion NG 3] (Eterna round: R96, puzzle: Exclusion NG 3)”, for which the “apparent KD of MS2 coat protein” value is, setting by setting: (input ligand: FMN 200 uM) 36.1 nM; under setting [1], 21.8 nM; (input ligand: none) 45.4 nM.

Consider “ACAUGAGGAUCACCCAUGUCCGGCUGGUCCGUUUCGGCUGUCGAGGAUAUAGUUCGGUGUCCGCGCUAGAAGGCGGGAGCUGGC [Aenatbe mod 61] (Eterna round: R96, puzzle: Exclusion NG 3)”, for which the “apparent KD of MS2 coat protein” value (input ligand: FMN 200 uM) was 181 nM, the “apparent KD of MS2 coat protein” value under setting [1] was found to be 67 nM and the “apparent KD of MS2 coat protein” value (input ligand: none) came to 98.5 nM.

Consider “ACAUGAGGAUCACCCAUGUCCGGCUGGUCUGUCUCGGCUGUCGAGGAUAUAGCACGGUAUCCGCGCUAGAAGGCGGGAGCCGGU [Aenatbe mod 87] (Eterna round: R96, puzzle: Exclusion NG 3)”, for which the “apparent KD of MS2 coat protein” value (input ligand: FMN 200 uM) is 216 nM, the “apparent KD of MS2 coat protein” value under setting [1] stood at 29 nM and the “apparent KD of MS2 coat protein” value (input ligand: none) was determined as 42.8 nM.

For the sequence “ACAUGAGGAUCACCCAUGUCCGGCUGGUCUGUCUCGGCUGUCGAGGAUAUAGCUCGGUAUCCGCGCUAGAAGGCGGGAGCCGGC [Aenatbe mod 90] (Eterna round: R96, puzzle: Exclusion NG 3)”, the “apparent KD of MS2 coat protein” value by setting is: (input ligand: FMN 200 uM) 98 nM; under setting [1], 43.5 nM; (input ligand: none) 72.7 nM.

Consider “ACAUGAGGAUCACCCAUGUGAAAAGAAUGGCUGACACAGAGAUAGGAUAUGCGUGCAUAUCUAACGCAGAAGGGUCAUGACUGG [Deportation 81 - Jieux - Exclusion NG 3] (Eterna round: R96, puzzle: Exclusion NG 3)”, for which the “apparent KD of MS2 coat protein” value reads like this: (input ligand: FMN 200 uM) 25.9 nM; under setting [1], 22.4 nM; (input ligand: none) 28.3 nM.

On to “ACAUGAGGAUCACCCAUGUGAAAGAAAUGGCUGACUUUGAGCUAGGAUAUUUGUGCAUAUCAAACGAAGAAGGAGCAUUACUGG [Deportation 100 - Jieux - Exclusion NG 3] (Eterna round: R96, puzzle: Exclusion NG 3)”, for which the “apparent KD of MS2 coat protein” value under setting [1] was determined as 16.4 nM.

Regarding “ACAUGAGGAUCACCCAUGUGACCACAAUGGCUGAUGUAAAGACAGGAUAUGUGUGAAUAUCUAACACAGAAGGGUCUUGACUGG [Deportation 57 - Jieux - Exclusion NG 3] (Eterna round: R96, puzzle: Exclusion NG 3)”, the “apparent KD of MS2 coat protein” value is, setting by setting: (input ligand: FMN 200 uM) 53 nM; under setting [1], 47.1 nM; (input ligand: none) 47.8 nM.

As for “ACAUGAGGAUCACCCAUGUGACCACAAUGGCUGAUGUAACAACAGGAUAUGUGUGAAUAUCUAACACAGAAGGGUUUUGACUGG [Deportation 58 - Jieux - Exclusion NG 3] (Eterna round: R96, puzzle: Exclusion NG 3)”, the “apparent KD of MS2 coat protein” value (input ligand: FMN 200 uM) is 76.9 nM, the “apparent KD of MS2 coat protein” value under setting [1] worked out at 59.3 nM and the “apparent KD of MS2 coat protein” value (input ligand: none) amounted to 75.9 nM.

Consider “ACAUGAGGAUCACCCAUGUGCACGUAAUGGCUCAUGUAGAGUGAGGAUAUGCGUGGCGAACGCGCGCAGAAGGCACAAGACUGG [Deportation 18 - Jieux - Exclusion NG 3] (Eterna round: R96, puzzle: Exclusion NG 3)”, for which the “apparent KD of MS2 coat protein” value by setting is: (input ligand: FMN 200 uM) 129 nM; under setting [1], 88.8 nM; (input ligand: none) 99.7 nM.

As for “ACAUGAGGAUCACCCAUGUUAGGUUGGUUUUCUCCGGCUGUUGAGGAUAUAGUCCGGUAUCCGCGCUAGAAGGUGAGGGUUGGC [Aenatbe mod 9] (Eterna round: R96, puzzle: Exclusion NG 3)”, the “apparent KD of MS2 coat protein” value reads like this: (input ligand: FMN 200 uM) 61.9 nM; under setting [1], 60 nM; (input ligand: none) 64.9 nM.
